Experimental data: patent US20230287120A1 (ALLOGENE THERAPEUTICS, published 2023)

T1: DSL-EGF6
T1 construct: also called Human DLL3 DSL-EGF6, N-terminal HA tag, on CHO cells
T1 single chain: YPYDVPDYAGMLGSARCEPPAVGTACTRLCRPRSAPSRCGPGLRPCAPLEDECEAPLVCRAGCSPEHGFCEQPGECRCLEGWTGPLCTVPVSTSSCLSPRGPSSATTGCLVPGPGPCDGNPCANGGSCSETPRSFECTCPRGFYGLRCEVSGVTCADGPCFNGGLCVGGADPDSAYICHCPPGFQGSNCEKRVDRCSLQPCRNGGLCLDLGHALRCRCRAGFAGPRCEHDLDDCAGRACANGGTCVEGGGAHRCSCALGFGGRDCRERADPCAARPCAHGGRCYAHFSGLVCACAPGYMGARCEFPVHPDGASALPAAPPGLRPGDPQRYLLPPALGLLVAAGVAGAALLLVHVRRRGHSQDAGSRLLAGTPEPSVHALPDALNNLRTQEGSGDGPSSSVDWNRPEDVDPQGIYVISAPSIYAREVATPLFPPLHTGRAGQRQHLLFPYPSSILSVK

T2: human DLL3 extracellular domain (ECD) with C-terminal 8xHis tag and Avi tag (human, UniProt Q9NYJ7 27-492)
T2 construct: extracellular domain; Expressed in Expi293, purified by IMAC and SEC; also called huDLL3; not shown: Avi tag
T2 sequence: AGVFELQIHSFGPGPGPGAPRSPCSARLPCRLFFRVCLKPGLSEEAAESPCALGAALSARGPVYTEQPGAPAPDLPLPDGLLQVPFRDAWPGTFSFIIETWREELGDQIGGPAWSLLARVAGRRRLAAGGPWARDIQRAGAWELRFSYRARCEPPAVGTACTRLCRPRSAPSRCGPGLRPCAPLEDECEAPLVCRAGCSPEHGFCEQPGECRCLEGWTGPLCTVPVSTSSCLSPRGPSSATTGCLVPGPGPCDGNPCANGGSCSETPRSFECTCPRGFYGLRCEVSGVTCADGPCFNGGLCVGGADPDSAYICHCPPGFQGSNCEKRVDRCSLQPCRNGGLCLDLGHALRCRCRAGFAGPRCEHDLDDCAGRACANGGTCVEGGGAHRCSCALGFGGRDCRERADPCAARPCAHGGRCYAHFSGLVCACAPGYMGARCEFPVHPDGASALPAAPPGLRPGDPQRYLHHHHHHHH

T3: EGF4-EGF6
T3 construct: also called Human DLL3 EGF4-EGF6, N-terminal HA tag, on CHO cells
T3 single chain: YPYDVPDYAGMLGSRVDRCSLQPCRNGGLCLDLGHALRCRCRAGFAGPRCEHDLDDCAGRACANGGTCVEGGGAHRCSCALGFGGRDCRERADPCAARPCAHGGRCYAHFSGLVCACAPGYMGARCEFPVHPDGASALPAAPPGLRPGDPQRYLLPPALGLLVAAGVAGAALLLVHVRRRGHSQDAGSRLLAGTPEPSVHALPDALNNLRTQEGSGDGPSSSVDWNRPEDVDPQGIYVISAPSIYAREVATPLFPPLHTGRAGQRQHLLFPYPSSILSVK

T4: EGF3-EGF6
T4 construct: also called Human DLL3 EGF3-EGF6, N-terminal HA tag, on CHO cells
T4 single chain: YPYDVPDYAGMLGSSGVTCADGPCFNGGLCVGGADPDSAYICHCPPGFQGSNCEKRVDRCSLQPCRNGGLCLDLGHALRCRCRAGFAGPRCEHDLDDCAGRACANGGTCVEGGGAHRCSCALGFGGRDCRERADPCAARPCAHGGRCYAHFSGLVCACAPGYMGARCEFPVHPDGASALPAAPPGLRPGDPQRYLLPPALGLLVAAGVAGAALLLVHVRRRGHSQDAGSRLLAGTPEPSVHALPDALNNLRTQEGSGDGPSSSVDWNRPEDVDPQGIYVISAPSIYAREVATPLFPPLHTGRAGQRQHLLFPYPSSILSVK

T5: EGF6
T5 construct: also called Human DLL3 EGF6, N-terminal HA tag, on CHO cells
T5 single chain: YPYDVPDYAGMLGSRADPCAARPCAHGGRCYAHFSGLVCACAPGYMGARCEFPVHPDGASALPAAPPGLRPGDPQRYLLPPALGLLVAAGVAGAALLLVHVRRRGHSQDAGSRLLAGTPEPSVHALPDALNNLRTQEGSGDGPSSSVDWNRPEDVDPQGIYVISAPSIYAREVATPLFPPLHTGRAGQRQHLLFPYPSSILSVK

T6: EGF5-EGF6
T6 construct: also called Human DLL3 EGF5-EGF6, N-terminal HA tag, on CHO cells
T6 single chain: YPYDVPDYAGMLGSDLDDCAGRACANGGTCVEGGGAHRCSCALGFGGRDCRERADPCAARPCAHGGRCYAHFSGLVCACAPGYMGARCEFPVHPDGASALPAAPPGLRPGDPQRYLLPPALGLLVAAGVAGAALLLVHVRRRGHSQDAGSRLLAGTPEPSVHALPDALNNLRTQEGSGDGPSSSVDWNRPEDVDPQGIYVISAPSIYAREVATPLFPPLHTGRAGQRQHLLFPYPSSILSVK

T7: EGF1-EGF6
T7 construct: also called Human DLL3 EGF1-EGF6, N-terminal HA tag, on CHO cells
T7 single chain: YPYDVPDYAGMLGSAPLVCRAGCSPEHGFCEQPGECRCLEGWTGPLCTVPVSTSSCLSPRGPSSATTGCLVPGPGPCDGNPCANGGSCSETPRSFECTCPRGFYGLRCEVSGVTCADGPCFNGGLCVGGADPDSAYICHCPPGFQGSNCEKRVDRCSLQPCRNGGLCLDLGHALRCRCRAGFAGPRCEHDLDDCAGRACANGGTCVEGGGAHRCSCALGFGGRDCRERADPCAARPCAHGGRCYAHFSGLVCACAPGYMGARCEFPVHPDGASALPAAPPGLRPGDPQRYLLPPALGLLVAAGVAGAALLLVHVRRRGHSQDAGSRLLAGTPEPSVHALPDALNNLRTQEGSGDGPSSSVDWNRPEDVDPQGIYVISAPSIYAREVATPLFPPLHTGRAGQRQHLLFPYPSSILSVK

T8: EGF2-EGF6
T8 construct: also called Human DLL3 EGF2-EGF6, N-terminal HA tag, on CHO cells
T8 single chain: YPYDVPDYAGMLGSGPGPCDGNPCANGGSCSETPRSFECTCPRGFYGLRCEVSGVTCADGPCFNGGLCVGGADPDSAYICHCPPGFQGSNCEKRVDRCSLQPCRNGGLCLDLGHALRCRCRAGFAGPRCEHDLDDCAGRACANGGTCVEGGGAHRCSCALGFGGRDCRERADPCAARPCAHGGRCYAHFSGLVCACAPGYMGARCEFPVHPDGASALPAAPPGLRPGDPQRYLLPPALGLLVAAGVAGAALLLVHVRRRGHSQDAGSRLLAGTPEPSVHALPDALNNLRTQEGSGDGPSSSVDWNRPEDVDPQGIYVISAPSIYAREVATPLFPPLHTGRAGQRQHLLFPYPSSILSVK


Assays:
DSL-EGF6 = target: T1, DSL-EGF6; experiment: flow cytometry on CHO cells with the HA tagged DLL3 construct, PE anti-mouse IgG
Procedure: (§1) The samples were analyzed by flow cytometry. […] Signals from the PE channel are shown on the x-axis and counts are shown on the y-axis.

[1] = target: T2, human DLL3 extracellular domain (ECD) …; experiment: SPR (Biacore), 37 C; IgG captured on chip, human DLL3 ECD in solution; 1:1 Langmuir fit
Procedure: The antibody binding kinetics were determined by surface plasmon resonance (Biacore™ surface plasmon resonance (SPR) system, GE Healthcare Bio-Sciences, Pittsburgh Pa.). The antibodies diluted in HBS-T+ running buffer (0.01 M HEPES pH 7.4, 0.15 M NaCl, 0.05% v/v Tween20, 1 mg/mL BSA) were captured on a CM4 chip immobilized with an antibody specific for the anti-DLL3 antibody constant domains. Purified DLL3 was serially diluted into HBS-T+, injected for 2 min at 30 uL/min and a dissociation time of 10 min then the surface regenerated with either 10 mM Glycine-HCl pH 1.7 or phosphoric acid between injections. […] Equilibrium dissociation constant (Kd) values are calculated as koff/kₒₙ.

EGF4-EGF6 = target: T3, EGF4-EGF6; experiment: flow cytometry on CHO cells with the HA tagged DLL3 construct, PE anti-mouse IgG
Procedure: as §1

EGF3-EGF6 = target: T4, EGF3-EGF6; experiment: as above
Procedure: as §1

EGF6 = target: T5, EGF6; experiment: as above
Procedure: as §1

EGF5-EGF6 = target: T6, EGF5-EGF6; experiment: as above
Procedure: as §1

EGF1-EGF6 = target: T7, EGF1-EGF6; experiment: as above
Procedure: as §1

EGF2-EGF6 = target: T8, EGF2-EGF6; experiment: as above
Procedure: as §1

binding result (DSL-EGF6) | Kd [1] | binding result (EGF4-EGF6) | binding result (EGF3-EGF6) | binding result (EGF6) | binding result (EGF5-EGF6) | binding result (EGF1-EGF6) | binding result (EGF2-EGF6) | Binder
binds | < 1.42 nM | no binding | no binding | no binding | no binding | binds | no binding | anti-DLL3 antibody 6D8 (IgG) (antibody, V domains shown, Full-length monoclonal antibody (IgG)) VH: QITLKESGPTLVKPTQTLTLTCTFSGFSLSTRGVGVGWIRQPPGKALEWLALIYWNDDKRYSPSLQTRLTITKDTPKNQVVLTMTNMDPVDTATYYCARSNWGNWYFALWGRGTLVTVSS VL: EIVLTQSPATLSLSPGERATLSCRASQSVSSYLAWYQQKPGQAPRLLIYDAFYRATGIPARFSGSGSGTDFTLTISSLEPEDFAVYYCQHRSNWPITFGQGTRLEIK
binds | 7.76 nM | no binding | no binding | no binding | no binding | no binding | no binding | anti-DLL3 antibody 5E12 (IgG) (antibody, V domains shown, Full-length monoclonal antibody (IgG)) VH: EVQLVESGGGLVQPGGSLRLSCAASGFTFSSYDMHWVRQATGKGLEWVSAIGPAGDTYYPGSVKGRFTISRENAKNSLYLQMNSLRAGDTAVYYCARADPPYYYYGMDVWGQGTTVTVSS VL: not shown
binds | 5.54 nM | no binding | binds | no binding | no binding | binds | binds | anti-DLL3 antibody 26C8 (IgG) (antibody, V domains shown, Full-length monoclonal antibody (IgG)) VH: QVQLQESGPGLVKPSETLSLTCTVSDNSISNYYWSWIRQPPGKGLEWIAYIYYSGTTNYNPSLKSRVTISLDTSKNQFSLQLSSVTAADAAVYYCARVFHWGFAFDIWGQGTMVTVSS VL: EIVLTQSPGTLSLSPGERATLSCRASQRVSNTYLAWYQQNPGQAPRLLIYGASSRATGIPDRFSGSGSGTDFTLTISRLEPEDFAVYYCQQYGTSPLTFGGGTKVEIK
